Key:
PKC-δ (purified isoform) [1] = molecular target: T1, PKC-δ (purified isoform); test: competitive ELISA, coated purified PKC-δ, vs anti-PKC δ (SC-213); PRE 200 µM
T1 construct: also called PKC-delta
Experimental: (§1) Greiner 96 well ELISA plates were coated with the appropriate PKC isoform diluted in PBSN (PBS with Calcium/Magnesium+0.05% Sodium azide w/w). 50 μL/well at 250 ng/mL was used. Control wells contained PBSN only. Plates were incubated overnight at 4° C.
(§2) The plates were washed 3 times with 200 μL of dH₂O per well, then 100 μL of blocking solution was added per well and the plate incubated for 1 h at 37° C. The washing steps with dH₂O were repeated and 50 μL of the appropriate PRE solution (PRE stock solution [20 mM in DMSO] diluted in PBSN) was added and the plate incubated for 1 h at room temperature.
(§3) 50 μL of 1:1000 dilution of Alkaline Phosphatase (AP) conjugated antibody (anti-rabbit for all except zeta, which was anti-goat) was then added and the plate incubated for 1 h at room temperature. Washing with dH₂O was then repeated. Finally, 100 μL of pNPP solution in pNPP buffer (2 mM MgCl₂, 100 mM Sodium bicarbonate in water, pH 9.8) was added to all wells and incubated for 8 minutes for α, βI, βII ε, and ζ, or for 15-20 mins for δ (until sufficient coloration is observed). The reaction was stopped by addition of Stop solution (2N NaOH) and the absorbance at 405 nm was read on a Galaxy Plate reader.

PKC-α (purified isoform) [2] = molecular target: T2, PKC-α (purified isoform) (Homo sapiens (Human), UniProt P17252 2-672); test: competitive ELISA, coated purified PKC-α, vs anti-PKC α (SC-208); PRE 100 µM
T2 construct: also called purified PKC-alpha; commercially purified PKC-alpha
Experimental: as §1, §2, §3

PKC-α (purified isoform) [3] = molecular target: T2, PKC-α (purified isoform); test: competitive ELISA, coated purified PKC-α, vs anti-PKC α (SC-208); PRE 50 µM
Experimental: as §1, §2, §3

PKC-δ (purified isoform) [4] = molecular target: T1, PKC-δ (purified isoform); test: competitive ELISA, coated purified PKC-δ, vs anti-PKC δ (SC-213); PRE 100 µM
Experimental: as §1, §2, §3

[5] = molecular target: T3, PKC-ε (endogenous, IMR-32 lysate) (human, UniProt Q02156 1-737); test: WB competition Protocol B, IMR-32 extract, vs anti-PKC-ε Ab; PKC-ε Band 2; 100 µg peptide
T3 construct: Band 1 and Band 2 (alternate splicing variants, not identified further) are kept under one molecule; the band is named in the assay field of each row; also called PKC-epsilon; PKC-ε Band 1
T3 sequence (looked up): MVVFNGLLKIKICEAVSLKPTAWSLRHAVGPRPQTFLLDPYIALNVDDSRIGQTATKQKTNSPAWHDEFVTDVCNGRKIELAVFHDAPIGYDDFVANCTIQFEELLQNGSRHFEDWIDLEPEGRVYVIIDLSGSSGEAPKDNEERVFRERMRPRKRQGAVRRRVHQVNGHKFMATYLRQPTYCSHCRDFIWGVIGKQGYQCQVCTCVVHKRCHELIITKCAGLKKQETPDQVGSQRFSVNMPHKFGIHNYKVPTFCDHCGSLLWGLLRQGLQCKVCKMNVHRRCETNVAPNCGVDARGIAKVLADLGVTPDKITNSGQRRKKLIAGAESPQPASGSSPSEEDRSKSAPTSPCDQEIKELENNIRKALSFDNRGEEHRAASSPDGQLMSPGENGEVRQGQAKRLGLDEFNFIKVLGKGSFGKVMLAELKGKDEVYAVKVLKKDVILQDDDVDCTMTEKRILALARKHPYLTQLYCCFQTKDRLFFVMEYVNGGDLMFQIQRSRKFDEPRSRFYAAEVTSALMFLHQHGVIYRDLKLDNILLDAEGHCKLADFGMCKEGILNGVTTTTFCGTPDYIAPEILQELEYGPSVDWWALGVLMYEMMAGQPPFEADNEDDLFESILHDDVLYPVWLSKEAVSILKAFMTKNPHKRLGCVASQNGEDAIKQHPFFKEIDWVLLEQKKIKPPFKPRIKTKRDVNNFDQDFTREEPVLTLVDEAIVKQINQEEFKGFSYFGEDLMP
Experimental: (§4) The ability of the peptides PRE 2 and PRE 3 (see Table 4) to interfere with the binding of a PKC-α-specific polyclonal antibody (Santa Cruz Biotechnology, Inc.) to PKC-α was determined using a modified version of the protocol outlined above in which the test peptide was added directly to the cell extract prior to electrophoresis at a concentration of either 5× or 15× the concentration of the protein applied to each well of the gel for the Western blots (20 μg).
(§5) Peptides PRE 2, PRE 3 and PRE 4 (see Table 4) were tested for their ability to interfere with the binding of isoform-specific polyclonal antibodies (Santa Cruz Biotechnology, Inc.) to […] using the general protocol described in Example 3. Two bands, representing alternate splicing variants of PKC-ε, were identified on the Western blot using this anti-PKC-ε antibody.

[6] = molecular target: T3, PKC-ε (endogenous, IMR-32 lysate); test: WB competition Protocol B, IMR-32 extract, vs anti-PKC-ε Ab; PKC-ε Band 1; 100 µg peptide
Experimental: as §4, §5

PKC-α (purified isoform) [7] = molecular target: T2, PKC-α (purified isoform); test: competitive ELISA, coated purified PKC-α, vs anti-PKC α (SC-208); PRE 200 µM
Experimental: as §1, §2, §3

[8] = molecular target: T4, PKC-βI (purified isoform) (Homo sapiens (Human), UniProt P05771 2-671); test: competitive ELISA, coated purified PKC-βI, vs anti-PKC βI (SC-209); PRE 200 µM
T4 construct: also called PKC-beta I; PKC beta 1
T4 sequence (P05771 2-671 limits assumed): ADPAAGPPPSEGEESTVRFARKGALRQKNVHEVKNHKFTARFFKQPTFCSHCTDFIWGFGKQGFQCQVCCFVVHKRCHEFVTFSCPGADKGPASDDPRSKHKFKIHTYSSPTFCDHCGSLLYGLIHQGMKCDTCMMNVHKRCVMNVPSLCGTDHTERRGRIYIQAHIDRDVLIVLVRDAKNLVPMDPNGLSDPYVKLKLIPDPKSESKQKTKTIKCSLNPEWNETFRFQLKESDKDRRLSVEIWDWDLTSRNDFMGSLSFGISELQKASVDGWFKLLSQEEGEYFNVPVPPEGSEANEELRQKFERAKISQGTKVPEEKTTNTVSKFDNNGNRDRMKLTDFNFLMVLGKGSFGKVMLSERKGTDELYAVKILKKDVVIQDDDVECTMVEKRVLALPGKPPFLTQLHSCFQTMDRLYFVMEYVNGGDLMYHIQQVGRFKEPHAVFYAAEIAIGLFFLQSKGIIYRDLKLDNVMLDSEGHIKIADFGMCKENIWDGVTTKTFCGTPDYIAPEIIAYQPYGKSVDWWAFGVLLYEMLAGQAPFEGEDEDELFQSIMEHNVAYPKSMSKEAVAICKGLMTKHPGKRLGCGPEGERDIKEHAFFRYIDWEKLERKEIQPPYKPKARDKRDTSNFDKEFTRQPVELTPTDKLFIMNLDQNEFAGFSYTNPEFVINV
Experimental: as §1, §2, §3

[9] = molecular target: T4, PKC-βI (purified isoform); test: competitive ELISA, coated purified PKC-βI, vs anti-PKC βI (SC-209); PRE 100 µM
Experimental: as §1, §2, §3

[10] = molecular target: T4, PKC-βI (purified isoform); test: competitive ELISA, coated purified PKC-βI, vs anti-PKC βI (SC-209); PRE 50 µM
Experimental: as §1, §2, §3

[11] = molecular target: T3, PKC-ε (endogenous, IMR-32 lysate); test: WB competition Protocol B, IMR-32 extract, vs anti-PKC-ε Ab; PKC-ε Band 1; 20 µg peptide
Experimental: as §4, §5

[12] = molecular target: T3, PKC-ε (endogenous, IMR-32 lysate); test: WB competition Protocol B, IMR-32 extract, vs anti-PKC-ε Ab; PKC-ε Band 2; 50 µg peptide
Experimental: as §4, §5

[13] = molecular target: T3, PKC-ε (endogenous, IMR-32 lysate); test: WB competition Protocol B, IMR-32 extract, vs anti-PKC-ε Ab; PKC-ε Band 2; 20 µg peptide
Experimental: as §4, §5

[14] = molecular target: T3, PKC-ε (endogenous, IMR-32 lysate); test: WB competition Protocol B, IMR-32 extract, vs anti-PKC-ε Ab; PKC-ε Band 1; 50 µg peptide
Experimental: as §4, §5

PKC-δ (purified isoform) [15] = molecular target: T1, PKC-δ (purified isoform); test: competitive ELISA, coated purified PKC-δ, vs anti-PKC δ (SC-213); PRE 50 µM
Experimental: as §1, §2, §3

PKC-βI = PKC-βI (UniProt P05771-1 1-671, limits assumed); test: cell-based or functional assay
Sequence of PKC-βI (P05771 whole entry): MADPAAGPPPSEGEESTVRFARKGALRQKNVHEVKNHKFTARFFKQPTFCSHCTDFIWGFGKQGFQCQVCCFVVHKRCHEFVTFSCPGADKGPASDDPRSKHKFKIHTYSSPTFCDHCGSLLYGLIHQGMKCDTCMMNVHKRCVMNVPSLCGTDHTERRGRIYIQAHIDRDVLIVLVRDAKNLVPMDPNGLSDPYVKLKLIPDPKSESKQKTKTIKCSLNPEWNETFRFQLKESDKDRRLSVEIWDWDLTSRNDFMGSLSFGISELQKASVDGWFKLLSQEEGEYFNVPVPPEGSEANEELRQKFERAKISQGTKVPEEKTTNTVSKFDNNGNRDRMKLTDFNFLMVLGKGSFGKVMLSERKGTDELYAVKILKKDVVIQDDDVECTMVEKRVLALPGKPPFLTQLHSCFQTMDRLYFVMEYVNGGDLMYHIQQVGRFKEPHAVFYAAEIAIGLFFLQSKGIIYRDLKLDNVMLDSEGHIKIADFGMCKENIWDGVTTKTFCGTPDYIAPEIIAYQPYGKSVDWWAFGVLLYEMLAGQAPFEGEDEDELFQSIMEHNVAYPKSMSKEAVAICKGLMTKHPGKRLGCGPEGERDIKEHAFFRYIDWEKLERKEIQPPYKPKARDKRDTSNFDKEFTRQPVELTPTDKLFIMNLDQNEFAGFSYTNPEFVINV

PKC-α = PKC-α (UniProt P17252 1-672, limits assumed); test: cell-based or functional assay
PKC-ε = molecular target: T5, PKC-ε (UniProt Q02156 1-737); test: cell-based or functional assay
T5 sequence (looked up): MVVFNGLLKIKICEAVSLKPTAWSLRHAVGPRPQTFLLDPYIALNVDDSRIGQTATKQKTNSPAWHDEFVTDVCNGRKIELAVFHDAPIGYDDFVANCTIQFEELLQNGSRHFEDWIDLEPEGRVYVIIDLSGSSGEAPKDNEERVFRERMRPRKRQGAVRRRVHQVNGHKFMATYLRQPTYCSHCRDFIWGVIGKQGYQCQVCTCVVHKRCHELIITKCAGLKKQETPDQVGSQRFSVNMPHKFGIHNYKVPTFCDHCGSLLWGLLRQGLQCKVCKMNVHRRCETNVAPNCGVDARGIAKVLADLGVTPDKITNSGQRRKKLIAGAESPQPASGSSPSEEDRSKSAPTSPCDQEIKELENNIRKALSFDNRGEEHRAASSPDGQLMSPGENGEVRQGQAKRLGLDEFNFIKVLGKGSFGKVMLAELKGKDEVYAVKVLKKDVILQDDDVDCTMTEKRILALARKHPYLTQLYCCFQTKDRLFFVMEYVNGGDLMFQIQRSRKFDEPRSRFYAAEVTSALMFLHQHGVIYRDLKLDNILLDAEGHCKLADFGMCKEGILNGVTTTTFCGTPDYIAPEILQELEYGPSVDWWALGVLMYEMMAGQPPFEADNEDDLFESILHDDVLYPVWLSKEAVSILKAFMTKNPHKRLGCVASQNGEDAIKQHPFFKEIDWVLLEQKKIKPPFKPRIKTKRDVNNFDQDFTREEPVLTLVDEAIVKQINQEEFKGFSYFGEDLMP

T1 sequence (Q05655 whole entry, stated change not applied, canonical isoform): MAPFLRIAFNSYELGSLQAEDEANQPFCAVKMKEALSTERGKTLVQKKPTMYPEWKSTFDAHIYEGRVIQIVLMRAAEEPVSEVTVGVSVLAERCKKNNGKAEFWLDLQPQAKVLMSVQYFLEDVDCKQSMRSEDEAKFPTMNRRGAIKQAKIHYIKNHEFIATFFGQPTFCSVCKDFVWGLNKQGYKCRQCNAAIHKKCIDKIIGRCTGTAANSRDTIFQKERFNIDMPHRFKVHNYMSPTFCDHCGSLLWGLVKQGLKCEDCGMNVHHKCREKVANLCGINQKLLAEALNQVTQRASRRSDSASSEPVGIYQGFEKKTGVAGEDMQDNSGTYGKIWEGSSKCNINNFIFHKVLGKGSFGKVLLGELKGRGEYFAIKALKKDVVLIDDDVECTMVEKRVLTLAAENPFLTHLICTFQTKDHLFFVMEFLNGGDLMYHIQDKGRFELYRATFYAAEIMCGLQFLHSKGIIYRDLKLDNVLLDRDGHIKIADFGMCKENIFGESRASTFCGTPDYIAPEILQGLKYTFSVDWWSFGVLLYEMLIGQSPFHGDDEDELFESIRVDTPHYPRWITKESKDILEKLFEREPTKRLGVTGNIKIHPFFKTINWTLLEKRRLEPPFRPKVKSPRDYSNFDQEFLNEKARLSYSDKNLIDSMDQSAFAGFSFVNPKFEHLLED

Ac-AKGIQEVKGGDAQNLIGISI-NH2 (also called peptide PRE 3) [PRE 3]
relative binding capacity (100-%n, DMSO subtracted) (PKC-δ (purified isoform) [1]): 57%
relative binding capacity (100-%n, DMSO subtracted) (PKC-α (purified isoform) [2]): 26.5%
relative binding capacity (100-%n, DMSO subtracted) (PKC-α (purified isoform) [3]): 17.5%
relative binding capacity (100-%n, DMSO subtracted) (PKC-δ (purified isoform) [4]): 56%
Band Intensity [5]: 0
Inhibition (%) [5]: 100%
Relative Intensity (%) [5]: 0%
Band Intensity [6]: 0
Inhibition (%) [6]: 100%
Relative Intensity (%) [6]: 0%
relative binding capacity (100-%n, DMSO subtracted) (PKC-α (purified isoform) [7]): 22.6%
relative binding capacity (100-%n, DMSO subtracted) [8]: 23%
relative binding capacity (100-%n, DMSO subtracted) [9]: 22.5%
relative binding capacity (100-%n, DMSO subtracted) [10]: 26%
Band Intensity [11]: 5.12
Inhibition (%) [11]: 99%
Relative Intensity (%) [11]: 0.12%
Band Intensity [12]: 0
Inhibition (%) [12]: 100%
Relative Intensity (%) [12]: 0%
Band Intensity [13]: 0
Inhibition (%) [13]: 100%
Relative Intensity (%) [13]: 0%
Band Intensity [14]: 0
Inhibition (%) [14]: 100%
Relative Intensity (%) [14]: 0%
relative binding capacity (100-%n, DMSO subtracted) (PKC-δ (purified isoform) [15]): 48.3%

Ac-FRRCFRLGGGGGGGRRKKGGKDFVVKR-NH2 [Compound TIM 20 (PRE 1 and PKI 4)]
% Inhibition of kinase activity (Kinase-Glo), compound at 5.0 µM (PKC-βI): 6.7%
% Inhibition of kinase activity (Kinase-Glo), compound at 30.0 µM (PKC-βI): 15.1%
% Inhibition of kinase activity (Kinase-Glo), compound at 5.0 µM (PKC-α): 19.8%
% Inhibition of kinase activity (Kinase-Glo), compound at 30.0 µM (PKC-α): 0%
% Inhibition of kinase activity (Kinase-Glo), compound at 5.0 µM (PKC-ε): -9%
% Inhibition of kinase activity (Kinase-Glo), compound at 30.0 µM (PKC-ε): -29%

Ac-FRRCFRLGGGGGGGAKGIQEVKGGDAQNLIGISI-NH2 [Compound TIM 18 (PRE 3 and PKI 4)]
% Inhibition of kinase activity (Kinase-Glo), compound at 5.0 µM (PKC-βI): 76.3%
% Inhibition of kinase activity (Kinase-Glo), compound at 30.0 µM (PKC-βI): 76.1%
% Inhibition of kinase activity (Kinase-Glo), compound at 5.0 µM (PKC-α): 100%
% Inhibition of kinase activity (Kinase-Glo), compound at 30.0 µM (PKC-α): 100%
% Inhibition of kinase activity (Kinase-Glo), compound at 5.0 µM (PKC-ε): -28%
% Inhibition of kinase activity (Kinase-Glo), compound at 30.0 µM (PKC-ε): 1%

Source: US20110039770A1 (PHARMAGAP, published 2011)
